Reference: patent publication EP4818200A1 (USWM CT, LLC, dated 2026)

Key:
[1] = biological target: T1, … HLA-A*0201 complex (biotinylated soluble pHLA) (human, enzymatically biotinylated (BirA) on the C-terminal biotinylation tag); assay: SPR (BIAcore 3000), soluble TCR over immobilised biotinylated pHLA, 25 °C
T1 construct: also called MAGE A4; not shown: C-terminal biotinylation tag

[2] = biological target: T2, … HLA-A*0201 complex (biotinylated soluble pHLA) (human, enzymatically biotinylated (BirA) on the C-terminal biotinylation tag); assay: as above
T2 construct: also called MAGE-B2; not shown: C-terminal biotinylation tag

Row | Binder | Kd [1] | Kd [2]
1 | TCR2 (TCR) TCR alpha: MKNQVEQSPQSLIILEGKNCTLQCNYTVSPFSNLRWYKQDTGRGPVSLTIMTFSENTKSNGRYTATLDADTKQSSLHITASQLSDSASYICVVSGGTDSWGKLQF TCR beta: not shown | 17.2 µM | 198 µM
2 | TCR3 (TCR) TCR alpha: MKNQVEQSPQSLIILEGKNCTLQCNYTVSPFSNLRWYKQDTGRGPVSLTIVTFSENTKSNGRYTATLDADTKQSSLHITASQLSDSASYICVVSGGTDSWGKLQF TCR beta: not shown | 2.6 µM | 27.6 µM
3 | TCR4 (TCR) TCR alpha: MKNQVEQSPQSLIILEGKNCTLQCNYTVSPFSNLRWYKQDTGRGPVSLTILTFSENTKSNGRYTATLDADTKQSSLHITASQLSDSASYICVVSGGTDSWGKLQF TCR beta: not shown | 5.1 µM | 52.6 µM
